US20130052176, “APTAMER FOR NGF AND USE THEREOF” (SHIONOGI & CO., LTD, published 2013)

Tests used:
Conditions in all cases: tags: amine-coupled to CM5 chip in SPR; soluble in cell assays; chain copies: 2
[1] = target: T1, NGF (nerve growth factor) (human, UniProt P01138 P01138:122-241); assay: cell_activity; neurite outgrowth, NGF 1.1 nM; SPR binding; TF-1 IC50 11.1 nM
[2] = target: T1, NGF (nerve growth factor); assay: cell_activity; neurite outgrowth, NGF 1.1 nM; SPR binding; TF-1 IC50 3.2 nM
[3] = target: T1, NGF (nerve growth factor); assay: cell_activity; neurite outgrowth, NGF 1.1 nM; SPR binding; blocks NGF-TrkA; TF-1 IC50 20.4 nM
Experimental: (§1) The neurite outgrowth inhibitory activity of the aptamer obtained in Example 1 was evaluated by using Neuroscreen-1 cell, which is a subclone of PC-12 cells.
(§2) The cells (2500 cells per well) were cultured for one day in an RPMI-1640 medium containing 2.5% horse serum and 1.25% fetal bovine serum in a 96 well flat-bottom plate coated with collagen type IV. […] Two days later, the cytoplasm and nuclei were stained using Cellomics Neurite Outgrowth Kit (manufactured by Thermo Scientific), and neurite length per cell was measured by Cellomics ArrayScan VTI (manufactured by Thermo Scientific). With the neurite length per cell obtained by the addition of NGF alone as inhibitory activity 0%, and that of the cell obtained by NGF free culture for 2 days as inhibitory activity 100%, the inhibitory activity of the aptamer was calculated from the neurite length per cell obtained by culturing with the addition of NGF and the aptamer in mixture. When the inhibitory activity was 0% or below, ‘0%’ is indicated.

[4] = target: T1, NGF (nerve growth factor); assay: cell_activity; neurite outgrowth, NGF 1.1 nM; SPR binding; TF-1 IC50 1.0 nM
[5] = target: T1, NGF (nerve growth factor); assay: cell_activity; neurite outgrowth, NGF 1.1 nM; SPR binding; TF-1 IC50 5.7 nM
Experimental: as §1, §2

[6] = target: T1, NGF (nerve growth factor); assay: cell_activity; neurite outgrowth, NGF 0.38 nM; SPR binding; TF-1 IC50 0.041 nM
Experimental: as §1, §2

[7] = target: T1, NGF (nerve growth factor); assay: cell_activity; neurite outgrowth, NGF 0.38 nM; SPR binding; TF-1 IC50 0.074 nM
Experimental: as §1, §2

[8] = target: T1, NGF (nerve growth factor); assay: cell_activity; neurite outgrowth, NGF 0.38 nM; SPR binding; TF-1 IC50 0.119 nM
Experimental: as §1, §2

[9] = target: T1, NGF (nerve growth factor); assay: cell_activity; neurite outgrowth, NGF 0.38 nM; SPR binding; TF-1 IC50 0.110 nM
Experimental: as §1, §2

[10] = target: T1, NGF (nerve growth factor); assay: cell_activity; neurite outgrowth, NGF 0.38 nM; SPR binding; TF-1 IC50 0.101 nM
Experimental: as §1, §2

[11] = target: T1, NGF (nerve growth factor); assay: cell_activity; neurite outgrowth, NGF 0.38 nM; SPR binding; TF-1 IC50 0.211 nM
Experimental: as §1, §2

[12] = target: T1, NGF (nerve growth factor); assay: cell_activity; neurite outgrowth, NGF 0.38 nM; SPR binding; TF-1 IC50 0.105 nM
Experimental: as §1, §2

[13] = target: T1, NGF (nerve growth factor); assay: cell_activity; neurite outgrowth, NGF 0.38 nM; SPR binding; TF-1 IC50 0.072 nM
Experimental: as §1, §2

[14] = target: T1, NGF (nerve growth factor); assay: cell_activity; neurite outgrowth, NGF 0.38 nM; SPR binding; TF-1 IC50 0.052 nM
Experimental: as §1, §2

[15] = target: T1, NGF (nerve growth factor); assay: cell_activity; neurite outgrowth, NGF 0.38 nM; SPR binding; TF-1 IC50 <0.1 nM
Experimental: as §1, §2

[16] = target: T1, NGF (nerve growth factor); assay: cell_activity; neurite outgrowth, NGF 0.38 nM; not tested by SPR; TF-1 IC50 0.520 nM
Experimental: as §1, §2

[17] = target: T1, NGF (nerve growth factor); assay: cell_activity; neurite outgrowth, NGF 0.38 nM; SPR binding; TF-1 IC50 0.062 nM
Experimental: as §1, §2

[18] = target: T1, NGF (nerve growth factor); assay: cell_activity; neurite outgrowth, NGF 0.38 nM; SPR binding; TF-1 IC50 0.058 nM
[19] = target: T1, NGF (nerve growth factor); assay: cell_activity; neurite outgrowth, NGF 0.38 nM; SPR binding; TF-1 IC50 0.175 nM
Experimental: as §1, §2

[20] = target: T1, NGF (nerve growth factor); assay: cell_activity; neurite outgrowth, NGF 0.38 nM; SPR binding; TF-1 IC50 0.108 nM
Experimental: as §1, §2

[21] = target: T1, NGF (nerve growth factor); assay: cell_activity; neurite outgrowth, NGF 0.38 nM; SPR binding; TF-1 IC50 0.120 nM
Experimental: as §1, §2

[22] = target: T1, NGF (nerve growth factor); assay: cell_activity; neurite outgrowth, NGF 0.38 nM; SPR binding; TF-1 IC50 0.128 nM
Experimental: as §1, §2

[23] = target: T1, NGF (nerve growth factor); assay: cell_activity; neurite outgrowth, NGF 0.38 nM; SPR binding; TF-1 IC50 0.073 nM
Experimental: as §1, §2

[24] = target: T1, NGF (nerve growth factor); assay: cell_activity; neurite outgrowth, NGF 0.38 nM; SPR binding; TF-1 IC50 0.081 nM
[25] = target: T1, NGF (nerve growth factor); assay: cell_activity; neurite outgrowth, NGF 0.38 nM; SPR binding; TF-1 IC50 0.083 nM
Experimental: as §1, §2

[26] = target: T1, NGF (nerve growth factor); assay: cell_activity; neurite outgrowth, NGF 0.38 nM; SPR binding; TF-1 IC50 0.09 nM
Experimental: as §1, §2

[27] = target: T1, NGF (nerve growth factor); assay: cell_activity; neurite outgrowth, NGF 0.38 nM; SPR binding; TF-1 IC50 0.186 nM
Experimental: as §1, §2

[28] = target: T1, NGF (nerve growth factor); assay: cell_activity; neurite outgrowth, NGF 0.38 nM; not tested by SPR; TF-1 IC50 0.051 nM
Experimental: as §1, §2

[29] = target: T1, NGF (nerve growth factor); assay: cell_activity; neurite outgrowth, NGF 0.38 nM; SPR binding; TF-1 IC50 0.100 nM
Experimental: as §1, §2

[30] = target: T1, NGF (nerve growth factor); assay: cell_activity; neurite outgrowth, NGF 0.38 nM; SPR binding; TF-1 IC50 0.061 nM
Experimental: as §1, §2

T1 sequence (P01138 122-241, one chain of several): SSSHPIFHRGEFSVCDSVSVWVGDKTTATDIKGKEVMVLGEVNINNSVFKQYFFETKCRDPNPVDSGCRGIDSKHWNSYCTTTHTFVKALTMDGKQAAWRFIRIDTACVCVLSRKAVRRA

B1: aptamer ID 10 (ssRNA)
RNA: GGGAGAACUUCGCCAGAAGUUUGAAAGAAACCCAAAUUAAAAAGUAUGUGCGCAUACA
modifications: 2'-F at all pyrimidines
IC50 [1]: < 3 nM

B2: aptamer ID 19 (ssRNA)
RNA: GGGAGAACUUCGCCAGAAGUUUGAAAGAAACCCAAAUAAAGAUGUGCGCAUC
modifications: 2'-F at all pyrimidines
IC50 [2]: 1.3 nM

B3: aptamer ID 1 (ssRNA)
RNA: GGGAGAACUUCGACCAGAAGUUUGAAAGAAACCCAAAUUAAAGUGAACAGUAUGUGCGCAUACA
modifications: 2'-F at all pyrimidines
IC50 [3]: 2.1 nM

B4: aptamer ID 21 (ssRNA)
RNA: GGGAGAACUUCGCCAGAAGUUUGAAAGAAACCCAAAUAAAGAGUGCGCUCA
modifications: 2'-F at all pyrimidines
IC50 [4]: 1.1 nM

B5: aptamer ID 22 (ssRNA)
RNA: GGGAGACUCGCCAGAGUUGAAAGAAACCCAAAUAAAGAUGUGCGCAUCA
modifications: 2'-F at all pyrimidines
IC50 [5]: 1.3 nM

B6: aptamer ID 26(9) (ssRNA)
RNA: GGGAGACUCGCCAGAGUUGAAAGAAACCCAAAUAAGUGUGCGCAC
modifications: 2'-F pyrimidines; 2'-OMe purines except 2'-OH at 3,5,19-22,26; 5' idT and 3' idT
IC50 [6]: 0.052 nM

B7: aptamer ID 26(13) (ssRNA)
RNA: B6 RNA
modifications: 2'-F pyrimidines; 2'-OMe purines except 2'-OH at 3,5,19,20,22,24,26; 5' idT and 3' idT
IC50 [7]: 0.039 nM

B8: aptamer ID 26(63) (mixed)
RNA: B6 RNA
modifications: 2'-F pyrimidines except 2'-OMe at 7,8,9,11,12,17,18,33,37,39,45 and dC at 27,29; 2'-OMe purines except 2'-OH at 3,19,20,26; 5' idT and 3' idT
IC50 [8]: 0.139 nM

B9: aptamer ID 26(20) (ssRNA)
RNA: B6 RNA
modifications: 2'-F pyrimidines; 2'-OMe purines except 2'-OH at 3,19,20,24; 5' idT and 3' idT
IC50 [9]: 0.016 nM

B10: aptamer ID 26(59) (ssRNA)
RNA: B6 RNA
modifications: 2'-F pyrimidines except 2'-OMe at 7,8,9,11,12,17,18,33,37,45; 2'-OMe purines except 2'-F at g3 and 2'-OH at 19,20,26; 5' idT and 3' idT
IC50 [10]: 0.17 nM

B11: aptamer ID 26(31) (ssRNA)
RNA: B6 RNA
modifications: 2'-F pyrimidines except 2'-OMe at 7; 2'-OMe purines except 2'-OH at 3,19,20,26; 5' idT and 3' idT
IC50 [11]: 0.3 nM

B12: aptamer ID 26(18) (ssRNA)
RNA: B6 RNA
modifications: 2'-F pyrimidines; 2'-OMe purines except 2'-OH at 3,19,20; 5' idT and 3' idT
IC50 [12]: 0.084 nM

B13: aptamer ID 26(52) (ssRNA)
RNA: B6 RNA
modifications: 2'-F pyrimidines except 2'-OMe at 7,8,9,11,12,17,18,33,37,39,45; 2'-OMe purines except 2'-OH at 3,19,20,26; 5' idT and 3' idT
IC50 [13]: 0.101 nM

B14: aptamer ID 26(12) (ssRNA)
RNA: B6 RNA
modifications: 2'-F pyrimidines; 2'-OMe purines except 2'-OH at 3,19-22,24,26; 5' idT and 3' idT
IC50 [14]: 0.036 nM

B15: aptamer ID 26(38) (ssRNA)
RNA: B6 RNA
modifications: 2'-F pyrimidines except 2'-OMe at 7; 2'-OMe purines except 2'-OH at 3,19,20,26; PS between 20 and 21; 5' idT and 3' idT
IC50 [15]: 0.145 nM

B16: aptamer ID 26(66) (ssRNA)
RNA: B6 RNA
modifications: 2'-F pyrimidines; 2'-OMe purines except 2'-OH at 3,19,20,26; 5' PEG40GS2 (ssH linker); 3' idT
IC50 [16]: 0.252 nM

B17: aptamer ID 26(49) (ssRNA)
RNA: B6 RNA
modifications: 2'-F pyrimidines except 2'-OMe at 7,8,9,11,12,17,18,33,37,45; 2'-OMe purines except 2'-OH at 3,19,20,26; 5' idT and 3' idT
IC50 [17]: 0.059 nM

B18: aptamer ID 26(11) (ssRNA)
RNA: B6 RNA
modifications: 2'-F pyrimidines; 2'-OMe purines except 2'-OH at 3,5,19-22; 5' idT and 3' idT
IC50 [18]: 0.087 nM

B19: aptamer ID 26(21) (mixed)
RNA: B6 RNA
modifications: 2'-F pyrimidines except dC at 7; 2'-OMe purines except 2'-OH at 3,19,20,26; 5' idT and 3' idT
IC50 [19]: 0.283 nM

B20: aptamer ID 26(51) (ssRNA)
RNA: B6 RNA
modifications: 2'-F pyrimidines except 2'-OMe at 7,8,9,11,12,17,18,33,37,45; 2'-OMe purines except 2'-OH at 3,19,20; 5' idT and 3' idT
IC50 [20]: 0.191 nM

B21: aptamer ID 26(62) (ssRNA)
RNA: B6 RNA
modifications: 2'-F pyrimidines except 2'-OMe at 7,8,9,11,12,17,18,33,37,45; 2'-OMe purines except 2'-OH at 3,19,20 and LNA at a26; 5' idT and 3' idT
IC50 [21]: 0.228 nM

B22: aptamer ID 26(43) (mixed)
RNA: B6 RNA
modifications: 2'-F pyrimidines except dC at 7,9,11,12,29,45 and dT at 8,17,33,37; 2'-OMe purines except 2'-OH at 3,19,20,26; 5' idT and 3' idT
IC50 [22]: 0.073 nM

B23: aptamer ID 26(42) (mixed)
RNA: B6 RNA
modifications: 2'-F pyrimidines except dC at 9,29 and dT at 33,37; 2'-OMe purines except 2'-OH at 3,19,20,26; 5' idT and 3' idT
IC50 [23]: 0.083 nM

B24: aptamer ID 26(15) (ssRNA)
RNA: B6 RNA
modifications: 2'-F pyrimidines; 2'-OMe purines except 2'-OH at 3,5,19,20,24,26; 5' idT and 3' idT
IC50 [24]: 0.067 nM

B25: aptamer ID 26(50) (mixed)
RNA: B6 RNA
modifications: 2'-F pyrimidines except 2'-OMe at 7,11,12,17,33,45, dT at 8,37 and dC at 9,29; 2'-OMe purines except 2'-OH at 3,19,20,26; 5' idT and 3' idT
IC50 [25]: 0.046 nM

B26: aptamer ID 26(14) (ssRNA)
RNA: B6 RNA
modifications: 2'-F pyrimidines; 2'-OMe purines except 2'-OH at 3,5,19-21,24,26; 5' idT and 3' idT
IC50 [26]: 0.082 nM

B27: aptamer ID 26(22) (mixed)
RNA: B6 RNA
modifications: 2'-F pyrimidines except dT at 8; 2'-OMe purines except 2'-OH at 3,19,20,26; 5' idT and 3' idT
IC50 [27]: 0.293 nM

B28: aptamer ID 26(64) (ssRNA)
RNA: B6 RNA
modifications: 2'-F pyrimidines except 2'-OMe at 7,8,9,11,12,17,18,33,37,39,45; 2'-OMe purines except 2'-OH at 3,19,20,26; 5' PEG80TS4 (ssH linker); 3' idT
IC50 [28]: 0.102 nM

B29: aptamer ID 26(41) (mixed)
RNA: B6 RNA
modifications: 2'-F pyrimidines except dC at 29 and dT at 37; 2'-OMe purines except 2'-OH at 3,19,20,26; 5' idT and 3' idT
IC50 [29]: 0.104 nM

B30: aptamer ID 26(44) (ssRNA)
RNA: B6 RNA
modifications: 2'-F pyrimidines except 2'-OMe at 7,11,12,17,33,45; 2'-OMe purines except 2'-OH at 3,19,20,26; 5' idT and 3' idT
IC50 [30]: 0.074 nM
